Source: the RNAGym collection of RNA variant scans (doi:10.7554/elife.80360)

B1: HDV Ribozyme (parent)
chain: GGCCGGCAUGGUCCCAGCCUCCUCGCUGGCGCCGGCUGGGCAACAUUCCGAGGGGACCGUCCCCUCGGUAAUGGCGAAUGGGACCCA

Variants of: B1
Assay: self-cleavage, relative activity (ratio to wild type); higher = more cleavage; co-transcriptional

In order of rising self-cleavage:
1. G6U C18G  0
2. C7G U46G  0
3. G6U A16C  0
4. G6U C7G  0
5. A8C G25C  0
6. C7G G25C  0
7. C7G A83U  0
8. C7A U20A  0
9. C7G C13A  0
10. C7U C18A  0
11. G6U U20G  0
12. A8G G29U  0
13. C7G U47A  0
14. C7G G82U  0
15. C7A C32G  0
16. C7A G25C  0
17. C7G G11C  0
18. G6U C30G  0.0326
19. C7U C32G  0.0361
20. G6U C21G  0.0361
21. C7G C30A  0.0361
22. A8G G35C  0.0426
23. G6U G11A  0.0437
24. G6U A45C  0.0462
25. C7G G74C  0.0475
26. A8G C22G  0.0489
27. C7U G38A  0.0496
28. A8G C32G  0.0573
29. A8G A42C  0.0573
30. C7G A43U  0.0573
31. C7G G29C  0.0615
32. C7A G35C  0.0665
33. C7G C24U  0.0692
34. C7U C32A  0.0707
35. C7U G28U  0.0712
36. C7U C24G  0.0739
37. C7A A78U  0.0791
38. C7A G29A  0.0804
39. A8C G38U  0.0875
40. G6U G82A  0.0875
41. C7U A78C  0.0923
42. A8C C33G  0.0923
43. G6U G29A  0.102
44. G6C U65A  0.104
45. C7U G38U  0.109
46. A8G G74U  0.111
47. C7G C84A  0.111
48. G6U C75U  0.113
49. A8C G82U  0.116
50. C7U G80U  0.117
51. A8C G31C  0.119
52. G6U G29C  0.119
53. G6U G31C  0.122
54. A8C C75U  0.128
55. A8G G82C  0.128
56. A8G A78G  0.128
57. G6U C18A  0.131
58. G6U C30U  0.131
59. G6U C36A  0.133
60. C7G G74A  0.138
61. A8C G25U  0.138
62. G6U C75G  0.145
63. A8C G25A  0.172
64. A8G G28U  0.185
65. A8C U72C  0.185
66. C7U G81U  0.187
67. C7A U79G  0.192
68. A8C C84G  0.208
69. G6C U69A  0.208
70. C7U G25A  0.212
71. A8C G31U  0.214
72. C7G C66G  0.214
73. C7G U27A  0.217
74. C7G G10C  0.222
75. C7U C41G  0.225
76. C7A C64A  0.227
77. G6U C21A  0.227
78. C7G G52C  0.229
79. C7G C66U  0.231
80. G6U C41G  0.237
81. C7U U12C  0.237
82. C7A U79A  0.249
83. A8C G73A  0.256
84. C7G U27G  0.256
85. G6U C41U  0.259
86. G6U C41A  0.269
87. G6U G31A  0.282
88. G6C U60G  0.312
89. A8C G74A  0.314
90. A8G G35A  0.332
91. C7U U12A  0.35
92. C7U G81A  0.352
93. C7G C26U  0.356
94. A8G C22U  0.361
95. G6U G10C  0.364
96. C7A C84U  0.366
97. G6U G68C  0.383
98. G6U A16G  0.388
99. G6U C64G  0.388
100. G6U C85A  0.394
101. C7U C32U  0.394
102. C7U C36U  0.399
103. G6U A45G  0.403
104. A8C G10U  0.415
105. C7A G50C  0.415
106. A8C C22U  0.426
107. C7G C57A  0.434
108. G6C U60C  0.453
109. C7A G68A  0.464
110. G6U A45U  0.475
111. C7G C58U  0.492
112. G6U G53C  0.494
113. A8G A70C  0.519
114. G6U G54A  0.522
115. C7A C48U  0.542
116. G6U C48A  0.542
117. A8C C63G  0.554
118. A8G G17U  0.554
119. A8G C41G  0.578
120. C7A C66U  0.587
121. G6U C63A  0.594
122. A8G C32U  0.609
123. A8G U23C  0.612
124. C7A C26A  0.615
125. A8C U23A  0.615
126. G6U C57A  0.623
127. A8C G10C  0.623
128. C7U A51C  0.643
129. A8C A83G  0.646
130. A8G G55A  0.655
131. C7U G52A  0.68
132. A8G C85A  0.68
133. C7A C85G  0.688
134. A8C A56C  0.692
135. G6U C48U  0.696
136. C7A U47A  0.697
137. A8C G76C  0.705
138. G6U A51U  0.739
139. C7U A56U  0.739
140. C7U G50A  0.786
141. A8C A87C  0.805
142. G6U G53A  0.821
143. A8G G76U  0.831
144. A8G A56U  0.831
145. A8C A16G  0.831
146. A8C C58U  0.831
147. C7A G76U  0.849
148. A8C C63A  0.852
149. C7U U69C  0.853
150. C7U U9A  0.86
151. C7U C58A  0.88
152. C7U G54C  0.884
153. G6U C26U  0.892
154. A8C C57U  0.895
155. A8G G54U  0.906
156. C7U C63U  0.918
157. C7U C64A  0.923
158. G6U U37C  0.943
159. A8C G10A  0.95
160. A8G U60A  0.95
161. A8C G52C  0.957
162. C7U U9G  0.997
163. C7U G54U  1
164. A8G G53C  1.03
165. A8G C62A  1.03
166. A8C C26G  1.11
167. C7U C57G  1.2
